{"source": "paper PMC6812618", "about": "(Journal of biological inorganic chemistry : JBIC : a …, 2019)", "biological_target": "the molecule itself", "test": "AUC", "note": "Several values for one entry are separate records, joined by “and”; a condition that tells them apart may be missing. Identical values can stand only once."}
{"protein": "human BOLA3 (natural protein, UniProt Q53S33 25-107, looked up) MFATQTEGELRVTQILKEKFPRATAIKVTDISGGCGAMYEIKIESEEFKEKRTVQQHQMVNQALKEEIKEMHGLRIFTSVPKR", "values": [{"measurement": "stoichiometry N", "result": "2 and 4"}]}
